In US20190144537A1:
Where a chain is given by its changes, count along the chain named. Blank lines part the entries; values can stand above or below the binder they belong to.

Biological target: cynoNotch3 monomer (cyno)
Experiment: binding to cynoNotch3 monomer at 25° C., protocol similar to that for hNotch3 (method not named)

Kd: 5.35 nM
B1: 28042.1 antibody (antibody, human IgG1, kappa, V domains shown)
VH: EVQLLESGGGLVQPGGSLRLSCAASGFTFSDYMMSWVRQAPGKGLEWVSWIRSSGGTTLYADSVKGRFTISRDNSKNTLYLQMNSLRAEDTATYYCARVGGGTTGYAFDIWGQGTMVTVSS
VL: DIQMTQSPSSLSASVGDRVTITCRASQSISSYLNWYQQKPGKAPKLLIYGASSLQSGVPSRVSGTGSGTDFTLTISSLQPEDFATYYCQQSYSPSFTFGPGTKVDFER

Kd: 214 nM
B2: 28042.2 antibody (antibody, human IgG1, kappa, V domains shown)
VH: B1 VH
VL: B1 VL with S31N, G50A
